# How the values were obtained:
# [1] = molecular target: T1, Raf-1 proteins present in human T-cell lysates (human, UniProt P04049 1-648); assay: anti-FLAG affinity column pull-down from 35S-labelled human T-cell lysate, anti-SP-63 immunoblot
# T1 construct: Endogenous protein within a cell lysate, so other lysate proteins were present; also called T-cell derived Raf-1 proteins; cellular Raf-1 serine/threonine kinase
# [2] = molecular target: T1, Raf-1 proteins present in human T-cell …; assay: anti-FLAG bead pull-down from T-cell lysate, anti-Raf-1 immunoblot
# [3] = molecular target: T2, (His)6-Raf-1 protein (UniProt P04049 1-648, limits assumed); assay: totally cell-free pull-down on anti-FLAG beads, anti-Raf-1 immunoblot
# T2 construct: Made in M15 bacteria and purified on Ni-NTA, or used as bacterial lysate; also called bacterially produced (His)6-Raf-1
# From the text: Eluted proteins were separated on SDS-PAGE, transferred onto Immobilon membrane and blotted with anti-Raf-1 antibody.
binding result [1],binding result [2],binding result [3],Binder
binds,–,–,"FLAG-HMK-IL-2Rβ chain cytoplasmic domain wild type fusion protein (receptor, not shown: small tags and cut ends, Made in BL-21 pLysS bacteria, about 33 kDa; also called FLAG-HMK-IL-2Rβ chain wild type (WT); FLAG-HMK-IL-2Rβ-WT) NCRNTGPWLKKVLKCNTPDPSKFFSQLSSEHGGDVQKWLSSPFPSSSFSPGGLAPEISPLEVLERDKVTQLLLQQDKVPEPASLSSNHSLTSCFTNQGYFFFHLPDALEIEACQVYFTYDPYSEEDPDEGVAGAPTGSSPQPLQPLSGEDDAYCTFPSRDDLLLFSPSLLGGPSPPSTAPGGSGAGEERMPPSLQERVPRDWDPQPLGPPTPGVPDLVDFQPPPELVLREAGEEVPDAGPREGVSFPWSRPPGQGEFRALNARLPLNTDAYLSLQELQGQDPTHLV"
–,no binding,no binding,"FLAG-HMK-IL-2Rβ chain mutant lacking both acidic domain and proline rich C-terminal (A-CT-) (receptor, How it was constructed is not described; also called FLAG-HMK-IL-2Rβ S+; not shown: 17 amino acid FLAG-HMK tag) NCRNTGPWLKKVLKCNTPDPSKFFSQLSSEHGGDVQKWLSSPFPSSSFSPGGLAPEISPLEVLERDKVTQLLL"
–,no binding,–,"FLAG-HMK-IL-2Rβ chain containing only the proline rich C-terminal (CT+) (receptor, How it was constructed is not described; also called FLAG-HMK-IL-2Rβ chain CT+ proteins; not shown: 17 amino acid FLAG-HMK tag) QPLSGEDDAYCTFPSRDDLLLFSPSLLGGPSPPSTAPGGSGAGEERMPPSLQERVPRDWDPQPLGPPTPGVPDLVDFQPPPELVLREAGEEVPDAGPREGVSFPWSRPPGQGEFRALNARLPLNTDAYLSLQELQGQDPTHLV"

# — patent US20010016194A1 (published 2001)
